{
  "source": "patent US7063950",
  "binders": {"B1": {"name": "125I-ω-CgTx GVIA, P01522 46-72 (peptide)", "peptide": "CKSPGSSCSPTSYNCCRSCNPYTKRCY", "modifications": "not checked"}},
  "key": {"[1]": {"biological_target": "human neuronal calcium channel α1B-2α2bβ1-3 (human)", "test": "saturation binding of 125I-ω-CgTx GVIA to transiently transfected HEK293 cells"}, "[2]": {"biological_target": "human neuronal calcium channel α1B-1 subunit (human)"}, "[3]": {"biological_target": "human neuronal calcium channel α1B-2α2bβ1-3 (human)"}},
  "data": [
    {"binder": "B1", "values": [
      {"measurement": "Bmax (sites/cell)", "setting": "[1]", "result": 37700, "unit": "sites/cell"},
      {"measurement": "Kd", "setting": "[1]", "result": 0.0443, "unit": "nM"},
      {"measurement": "Bmax (sites/cell)", "setting": "[2]", "result": 757, "unit": "sites/cell"},
      {"measurement": "Kd", "setting": "[2]", "result": 0.0317, "unit": "nM"},
      {"measurement": "fold binding capacity against α1B-2α2bβ1-2", "setting": "[3]", "result": 2, "unit": "fold"},
      {"measurement": "fold surface receptor density against α1B-2β1-3", "setting": "[3]", "result": 13, "unit": "fold"}
    ]}
  ]
}
